Measured values reported in publication PMC10786891, “Massively parallel profiling of RNA-targeting CRISPR-Cas13d”.

T1: EsCas13d, nuclease-dead (Eubacterium siraeum, UniProt B0MS50, R295A;H300A;R849A;H854A)
T1 sequence: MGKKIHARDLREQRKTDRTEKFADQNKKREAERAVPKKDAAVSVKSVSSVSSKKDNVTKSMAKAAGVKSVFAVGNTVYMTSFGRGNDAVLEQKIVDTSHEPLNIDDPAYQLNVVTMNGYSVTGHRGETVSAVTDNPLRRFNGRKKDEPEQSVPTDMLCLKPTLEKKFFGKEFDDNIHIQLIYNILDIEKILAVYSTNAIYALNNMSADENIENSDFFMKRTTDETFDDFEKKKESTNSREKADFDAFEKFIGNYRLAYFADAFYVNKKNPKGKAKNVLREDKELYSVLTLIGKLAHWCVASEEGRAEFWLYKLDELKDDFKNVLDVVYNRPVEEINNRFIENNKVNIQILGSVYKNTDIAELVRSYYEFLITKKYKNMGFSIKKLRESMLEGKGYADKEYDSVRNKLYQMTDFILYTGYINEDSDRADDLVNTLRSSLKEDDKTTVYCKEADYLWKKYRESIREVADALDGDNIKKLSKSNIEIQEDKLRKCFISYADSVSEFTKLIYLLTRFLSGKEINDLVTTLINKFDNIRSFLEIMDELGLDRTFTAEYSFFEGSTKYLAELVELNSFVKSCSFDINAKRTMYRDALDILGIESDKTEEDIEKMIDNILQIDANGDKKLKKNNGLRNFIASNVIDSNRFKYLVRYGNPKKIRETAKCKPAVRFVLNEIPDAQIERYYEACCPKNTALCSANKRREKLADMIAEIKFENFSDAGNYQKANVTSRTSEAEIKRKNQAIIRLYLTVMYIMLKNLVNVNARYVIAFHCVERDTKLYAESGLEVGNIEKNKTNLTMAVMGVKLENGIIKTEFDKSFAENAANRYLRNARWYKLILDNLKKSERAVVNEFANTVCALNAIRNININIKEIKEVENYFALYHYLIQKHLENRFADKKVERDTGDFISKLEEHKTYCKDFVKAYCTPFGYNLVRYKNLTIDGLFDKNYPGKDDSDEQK

B1: target 2 MT 5'PFS GGC 3'PFS UGC (mixed)
RNA 1: CACCCGUGCAAAAUUGCAGGGGUCUAAAACCUUCUCCAAAUUGUUUCAUCCU
RNA 2: GGGAAUGGAUCCACAUCUACGAAUUCGGCAGGAUGAAACAAUUUGGAGAAGUGCAGAUCGGAAGAGCACACGU
B2: non-target control (mixed)
RNA 1: CACCCGUGCAAAAAUGCAGGGGUCUAAAACUGAGCGGAUAACCUCUCUAUGG
RNA 2: GGGAAUGGAUCCACAUCUACGAAUUCGUUAGCUAGAAGGGGAAGUUGGUUAUGGAGAUCGGAAGAGCACACGU
B3: target 1 insA 3' of 13,insC 3' of 12 (mixed)
RNA 1: CACCCGUGCAAAAAUGCAGGGGUCUAAAACUGAGCGGAUAACCUCUCUAUGG
RNA 2: GGGAAUGGAUCCACAUCUACGAAUUCGUACCAUAGAGAGAGCUUAUCCGCUCACCGAGAUCGGAAGAGCACACGU
B4: target 1 insC 3' of 9,insA 3' of 7 (mixed)
RNA 1: CACCCGUGCAAAAAUGCAGGGGUCUAAAACUGAGCGGAUAACCUCUCUAUGG
RNA 2: GGGAAUGGAUCCACAUCUACGAAUUCGUACCAUAGAGAGGUUACUCACGCUCACCGAGAUCGGAAGAGCACACGU
B5: target 1 A9C,U11C (mixed)
RNA 1: CACCCGUGCAAAAAUGCAGGGGUCUAAAACUGAGCGGAUAACCUCUCUAUGG
RNA 2: GGGAAUGGAUCCACAUCUACGAAUUCGUACCAUAGAGAGGCUCUCCGCUCACCGAGAUCGGAAGAGCACACGU
B6: target 1 insG 3' of 11,insA 3' of 11 (mixed)
RNA 1: CACCCGUGCAAAAAUGCAGGGGUCUAAAACUGAGCGGAUAACCUCUCUAUGG
RNA 2: GGGAAUGGAUCCACAUCUACGAAUUCGUACCAUAGAGAGGUGAUAUCCGCUCACCGAGAUCGGAAGAGCACACGU
B7: target 1 insC 3' of 17,insG 3' of 14 (mixed)
RNA 1: CACCCGUGCAAAAAUGCAGGGGUCUAAAACUGAGCGGAUAACCUCUCUAUGG
RNA 2: GGGAAUGGAUCCACAUCUACGAAUUCGUACCAUAGCAGAGGGUUAUCCGCUCACCGAGAUCGGAAGAGCACACGU
B8: target 1 U3A,U10G (mixed)
RNA 1: CACCCGUGCAAAAAUGCAGGGGUCUAAAACUGAGCGGAUAACCUCUCUAUGG
RNA 2: GGGAAUGGAUCCACAUCUACGAAUUCGUACCAUAGAGAGGUGAUCCGCACACCGAGAUCGGAAGAGCACACGU
B9: target 1 insG 3' of 9,insA 3' of 5 (mixed)
RNA 1: CACCCGUGCAAAAAUGCAGGGGUCUAAAACUGAGCGGAUAACCUCUCUAUGG
RNA 2: GGGAAUGGAUCCACAUCUACGAAUUCGUACCAUAGAGAGGUUAGUCCGACUCACCGAGAUCGGAAGAGCACACGU
B10: target 1 U11A (mixed)
RNA 1: CACCCGUGCAAAAAUGCAGGGGUCUAAAACUGAGCGGAUAACCUCUCUAUGG
RNA 2: GGGAAUGGAUCCACAUCUACGAAUUCGUACCAUAGAGAGGAUAUCCGCUCACCGAGAUCGGAAGAGCACACGU
B11: target 1 insA 3' of 15,insC 3' of 8 (mixed)
RNA 1: CACCCGUGCAAAAAUGCAGGGGUCUAAAACUGAGCGGAUAACCUCUCUAUGG
RNA 2: GGGAAUGGAUCCACAUCUACGAAUUCGUACCAUAGAGAAGGUUAUCCCGCUCACCGAGAUCGGAAGAGCACACGU
B12: target 1 A1G,A9U (mixed)
RNA 1: CACCCGUGCAAAAAUGCAGGGGUCUAAAACUGAGCGGAUAACCUCUCUAUGG
RNA 2: GGGAAUGGAUCCACAUCUACGAAUUCGUACCAUAGAGAGGUUUUCCGCUCGCCGAGAUCGGAAGAGCACACGU
B13: target 1 insG 3' of 22,insA 3' of 8 (mixed)
RNA 1: CACCCGUGCAAAAAUGCAGGGGUCUAAAACUGAGCGGAUAACCUCUCUAUGG
RNA 2: GGGAAUGGAUCCACAUCUACGAAUUCGUACGCAUAGAGAGGUUAUACCGCUCACCGAGAUCGGAAGAGCACACGU
B14: target 1 C4U,U8C (mixed)
RNA 1: CACCCGUGCAAAAAUGCAGGGGUCUAAAACUGAGCGGAUAACCUCUCUAUGG
RNA 2: GGGAAUGGAUCCACAUCUACGAAUUCGUACCAUAGAGAGGUUACCCGUUCACCGAGAUCGGAAGAGCACACGU
B15: target 1 C6G,U11C (mixed)
RNA 1: CACCCGUGCAAAAAUGCAGGGGUCUAAAACUGAGCGGAUAACCUCUCUAUGG
RNA 2: GGGAAUGGAUCCACAUCUACGAAUUCGUACCAUAGAGAGGCUAUCGGCUCACCGAGAUCGGAAGAGCACACGU
B16: target 1 A9U (mixed)
RNA 1: CACCCGUGCAAAAAUGCAGGGGUCUAAAACUGAGCGGAUAACCUCUCUAUGG
RNA 2: GGGAAUGGAUCCACAUCUACGAAUUCGUACCAUAGAGAGGUUUUCCGCUCACCGAGAUCGGAAGAGCACACGU
B17: target 1 U8A,C22U (mixed)
RNA 1: CACCCGUGCAAAAAUGCAGGGGUCUAAAACUGAGCGGAUAACCUCUCUAUGG
RNA 2: GGGAAUGGAUCCACAUCUACGAAUUCGUAUCAUAGAGAGGUUAACCGCUCACCGAGAUCGGAAGAGCACACGU
B18: target 1 A9U,G12A (mixed)
RNA 1: CACCCGUGCAAAAAUGCAGGGGUCUAAAACUGAGCGGAUAACCUCUCUAUGG
RNA 2: GGGAAUGGAUCCACAUCUACGAAUUCGUACCAUAGAGAGAUUUUCCGCUCACCGAGAUCGGAAGAGCACACGU
B19: target 1 insU 3' of 6,insG 3' of 3 (mixed)
RNA 1: CACCCGUGCAAAAAUGCAGGGGUCUAAAACUGAGCGGAUAACCUCUCUAUGG
RNA 2: GGGAAUGGAUCCACAUCUACGAAUUCGUACCAUAGAGAGGUUAUCCUGCUGCACCGAGAUCGGAAGAGCACACGU
B20: target 1 insC 3' of 12,insA 3' of 11 (mixed)
RNA 1: CACCCGUGCAAAAAUGCAGGGGUCUAAAACUGAGCGGAUAACCUCUCUAUGG
RNA 2: GGGAAUGGAUCCACAUCUACGAAUUCGUACCAUAGAGAGGCUAUAUCCGCUCACCGAGAUCGGAAGAGCACACGU
B21: target 1 G5U,G12C (mixed)
RNA 1: CACCCGUGCAAAAAUGCAGGGGUCUAAAACUGAGCGGAUAACCUCUCUAUGG
RNA 2: GGGAAUGGAUCCACAUCUACGAAUUCGUACCAUAGAGAGCUUAUCCUCUCACCGAGAUCGGAAGAGCACACGU
B22: target 1 insC 3' of 22,insC 3' of 10 (mixed)
RNA 1: CACCCGUGCAAAAAUGCAGGGGUCUAAAACUGAGCGGAUAACCUCUCUAUGG
RNA 2: GGGAAUGGAUCCACAUCUACGAAUUCGUACCCAUAGAGAGGUUCAUCCGCUCACCGAGAUCGGAAGAGCACACGU
B23: target 1 C2U,C4A (mixed)
RNA 1: CACCCGUGCAAAAAUGCAGGGGUCUAAAACUGAGCGGAUAACCUCUCUAUGG
RNA 2: GGGAAUGGAUCCACAUCUACGAAUUCGUACCAUAGAGAGGUUAUCCGAUUACCGAGAUCGGAAGAGCACACGU
B24: target 1 A1U,A9U (mixed)
RNA 1: CACCCGUGCAAAAAUGCAGGGGUCUAAAACUGAGCGGAUAACCUCUCUAUGG
RNA 2: GGGAAUGGAUCCACAUCUACGAAUUCGUACCAUAGAGAGGUUUUCCGCUCUCCGAGAUCGGAAGAGCACACGU
B25: target 1 insG 3' of 16,insA 3' of 10 (mixed)
RNA 1: CACCCGUGCAAAAAUGCAGGGGUCUAAAACUGAGCGGAUAACCUCUCUAUGG
RNA 2: GGGAAUGGAUCCACAUCUACGAAUUCGUACCAUAGAGGAGGUUAAUCCGCUCACCGAGAUCGGAAGAGCACACGU
B26: target 1 insG 3' of 11,insG 3' of 7 (mixed)
RNA 1: CACCCGUGCAAAAAUGCAGGGGUCUAAAACUGAGCGGAUAACCUCUCUAUGG
RNA 2: GGGAAUGGAUCCACAUCUACGAAUUCGUACCAUAGAGAGGUGUAUCGCGCUCACCGAGAUCGGAAGAGCACACGU
B27: target 1 A18G (mixed)
RNA 1: CACCCGUGCAAAAAUGCAGGGGUCUAAAACUGAGCGGAUAACCUCUCUAUGG
RNA 2: GGGAAUGGAUCCACAUCUACGAAUUCGUACCAUGGAGAGGUUAUCCGCUCACCGAGAUCGGAAGAGCACACGU
B28: target 1 G15C,C22A (mixed)
RNA 1: CACCCGUGCAAAAAUGCAGGGGUCUAAAACUGAGCGGAUAACCUCUCUAUGG
RNA 2: GGGAAUGGAUCCACAUCUACGAAUUCGUAACAUAGACAGGUUAUCCGCUCACCGAGAUCGGAAGAGCACACGU

Each binder was assayed against T1, EsCas13d, nuclease-dead (assay: crRNA (strand 1, pre-loaded); Mg2+; 40 mM Tris-HCl pH 7.5, 150 mM NaCl, 6 mM MgCl2, 1 mM DTT, 0.1% Tween-20, 0.2 mg/ml BSA; 25 C; 10 min per concentration, then washed). Settings: tags: His6-TwinStrep-SUMO cleaved; N-terminal SNAP kept (SNAP-Surface 488); label: 3' end held by stalled T7 RNA polymerase.
B1 was tested, and the Kd was 13.2 ± 1.3 nM. For B2, the Kd was > 100 nM. For B3, the Kd was 6.3 ± 0.9 nM. Binder B4 has a Kd of 10.4 ± 0.4 nM. Binder B5 has a Kd of 20 ± 1.7 nM. B6 gave a Kd of 15.2 ± 0.8 nM. B7 was tested, and the Kd was 38 ± 4 nM. Binder B8 has a Kd of 61 ± 16 nM. B9 was tested, and the Kd was 10.3 ± 1 nM. B10 was tested, and the Kd was 30.7 ± 1.9 nM. B11 was tested, and the Kd was 15.2 ± 1.8 nM. With B12 the Kd was 8.1 ± 0.6 nM. Binder B13 has a Kd of 35.9 ± 2.6 nM. B14 showed a Kd of 30 ± 4 nM. With B15 the Kd was 9.8 ± 0.8 nM. B16 was tested, and the Kd was 8.9 ± 0.7 nM. B17 showed a Kd of 35 ± 5 nM. For B18, the Kd was 7.7 ± 0.4 nM. B19 gave a Kd of 7.9 ± 0.4 nM. For B20, the Kd was 15 ± 1.2 nM. Work on B21 yielded a Kd of 41 ± 4 nM. B22 showed a Kd of 41 ± 10 nM. Binder B23 has a Kd of 6.7 ± 0.4 nM. B24 was tested, and the Kd was 7.8 ± 0.5 nM. For B25, the Kd was 19.9 ± 1.5 nM. B26 gave a Kd of 17.2 ± 0.8 nM. B27 was tested, and the Kd was 94 ± 28 nM. B28 showed a Kd of 63 ± 12 nM.
